The target in the assay is hemagglutinin of influenza A virus A/New Caledonia/20/99 (H1) (influenza A virus A/New Caledonia/20/99 (H1)).

B1: monoclonal antibody GG3 (antibody, V domains shown)
VH: QIQLVQSGPELKKPGETVKISCKASGYTFTNYGMNWVKQAPGKGLKWMGWINIYSGESTYVDDFTGRFAFSLETSASTAYLQINNLKNEDMATYFCARSGDTMITAGRSFFAMDYWGQGTSVTVSS
VL: DIQMTQSPSSLSASLGERVSLTCRASQEISGYLSWLQQKPDGTIKRLIYAASTLDSGVPKRFSGSRSGSDYSLSISSLESEDFADYYCLQYANYPWSFGGGTKLEIK
Molecule B1 yielded an IC50 (read off the curve), plaque reduction neutralization assay of 6 µg/mL.

Values taken from patent publication US20180265573A1.
